Laboratory results reported in publication PMC9044917 (Nature structural & molecular biology, 2022).
Like-named read-outs stand apart in the source and are kept apart here.

What was measured:
negative stain EM [1] = target: the molecule itself; assay: negative stain EM
negative stain EM [2] = target: the molecule itself; assay: negative stain EM; remark: listed apart in the source

Row | Protein | binding result (negative stain EM [1]) | binding result (negative stain EM [2])
1 | IMPDH1(514)-T116M (enzyme) not shown | binds | –
2 | IMPDH1(514)-R105W (enzyme) not shown | binds | –
3 | IMPDH1(514)-K238E (enzyme) not shown | binds | –
4 | IMPDH1(514)-N198K (enzyme) not shown | binds | –
5 | IMPDH1(514)-V268I (enzyme) not shown | binds | –
6 | IMPDH1(514)-D226N (enzyme) not shown | binds | –
7 | IMPDH1(514)-H372P (enzyme) not shown | binds | –
8 | IMPDH1(514)-R231P (enzyme) not shown | binds | –
9 | IMPDH1(514) (enzyme) not shown | – | binds
10 | IMPDH1(514)-R224P (enzyme) not shown | binds | –
